Source: PMC9007743

Target: rhodopsin (bovine (endogenous in bovine retina)) (UniProt P02699)
Sequence (P02699 whole entry): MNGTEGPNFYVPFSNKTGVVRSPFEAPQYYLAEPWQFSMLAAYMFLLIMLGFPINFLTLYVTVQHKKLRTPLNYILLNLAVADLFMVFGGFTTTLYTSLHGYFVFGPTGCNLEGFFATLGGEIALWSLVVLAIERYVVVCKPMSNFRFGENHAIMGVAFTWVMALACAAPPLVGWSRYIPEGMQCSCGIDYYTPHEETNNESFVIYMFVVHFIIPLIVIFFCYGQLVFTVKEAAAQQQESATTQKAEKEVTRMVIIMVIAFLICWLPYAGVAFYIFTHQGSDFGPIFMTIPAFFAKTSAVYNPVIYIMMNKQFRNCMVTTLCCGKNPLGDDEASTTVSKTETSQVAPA

transducin, heterotrimeric G protein (Gt), sequence (P04695 whole entry): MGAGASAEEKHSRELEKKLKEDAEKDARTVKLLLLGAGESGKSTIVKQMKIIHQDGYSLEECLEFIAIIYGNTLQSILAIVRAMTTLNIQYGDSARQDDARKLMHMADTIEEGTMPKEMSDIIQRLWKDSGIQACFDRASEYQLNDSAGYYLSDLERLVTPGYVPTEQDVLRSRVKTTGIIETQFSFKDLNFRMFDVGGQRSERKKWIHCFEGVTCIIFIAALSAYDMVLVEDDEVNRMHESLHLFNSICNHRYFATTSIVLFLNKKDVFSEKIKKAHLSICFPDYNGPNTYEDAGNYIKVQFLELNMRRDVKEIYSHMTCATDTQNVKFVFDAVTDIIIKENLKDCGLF
transducin, heterotrimeric G protein (Gt), sequence (P62871 whole entry): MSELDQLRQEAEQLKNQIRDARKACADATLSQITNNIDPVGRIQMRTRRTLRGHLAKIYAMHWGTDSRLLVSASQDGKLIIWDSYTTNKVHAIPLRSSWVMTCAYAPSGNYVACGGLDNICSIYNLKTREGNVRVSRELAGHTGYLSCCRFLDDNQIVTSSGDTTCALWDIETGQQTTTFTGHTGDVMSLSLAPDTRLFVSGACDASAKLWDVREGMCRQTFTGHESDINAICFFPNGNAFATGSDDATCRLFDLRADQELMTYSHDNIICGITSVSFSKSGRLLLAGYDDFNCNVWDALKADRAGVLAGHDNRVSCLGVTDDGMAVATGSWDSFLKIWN
transducin, heterotrimeric G protein (Gt), sequence (P02698 whole entry): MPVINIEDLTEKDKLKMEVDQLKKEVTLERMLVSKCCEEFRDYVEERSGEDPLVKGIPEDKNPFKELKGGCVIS

## transducin, heterotrimeric G protein (Gt) (from UniProt P04695 1-350; P62871 1-340; P02698 1-74) (complex)
  ratio Gt•GDP:Gt by native MS with 90 μM compound 1, ROS membrane present, from dark (1.2) to 15 s of illumination (0.6) (ratio Gt•GDP:Gt): 1.2
  ratio Gt•GDP:Gt by native MS with 90 μM compound 6, ROS membrane present, from dark (2.0) to 15 s of illumination (0.8) (ratio Gt•GDP:Gt): 2
  ratio Gt•GDP:Gt by native MS, control without compound, ROS membrane present, from dark (4.1) to 15 s of illumination (1.2) (ratio Gt•GDP:Gt): 4.1
